Target: Drug A
Experiment: cell-based or functional assay

B1: Fab of Antibody B (Fab, V domains shown)
VH: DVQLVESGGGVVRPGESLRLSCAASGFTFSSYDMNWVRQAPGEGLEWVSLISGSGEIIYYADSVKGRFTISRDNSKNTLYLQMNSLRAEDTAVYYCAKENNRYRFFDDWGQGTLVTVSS
VL: ETVLTQSPGTLTLSPGERATLTCRASQSVYTYLAWYQEKPGQAPRLLIYGASSRATGIPDRFSGSGSGTEFTLTISSLQSEDFAVYYCQQYYDRPPLTFGGGTKVEIK
  hemagglutination of Drug A-coated erythrocytes with anti-IgG; molar excess of Fab that prevented it: 400 fold molar excess relative to Drug A
